Experiment in all cases: liposome recruitment assay (liposome flotation, gel band quantification)
Assay [1] deals with Sec23–Sec24 complex (WT), P15303;P40482. The conditions noted are these: GMP-PNP, 400 nm unilamellar liposomes, read off a plot.
In assay [2] the target is Sec13–Sec31 complex (WT), Q04491;P38968. The conditions noted are these: GMP-PNP; 400 nm unilamellar liposomes; parent: est. 1.1; read off a plot.
The next assay addresses Sar1 (UniProt P20606). The conditions noted are these: GMP-PNP; 400 nm unilamellar liposomes; parent: est. 0.98; read off a plot.

Sequence of Sec23–Sec24 complex (WT) (P15303 whole entry, stated change not applied, the tested form may be a part): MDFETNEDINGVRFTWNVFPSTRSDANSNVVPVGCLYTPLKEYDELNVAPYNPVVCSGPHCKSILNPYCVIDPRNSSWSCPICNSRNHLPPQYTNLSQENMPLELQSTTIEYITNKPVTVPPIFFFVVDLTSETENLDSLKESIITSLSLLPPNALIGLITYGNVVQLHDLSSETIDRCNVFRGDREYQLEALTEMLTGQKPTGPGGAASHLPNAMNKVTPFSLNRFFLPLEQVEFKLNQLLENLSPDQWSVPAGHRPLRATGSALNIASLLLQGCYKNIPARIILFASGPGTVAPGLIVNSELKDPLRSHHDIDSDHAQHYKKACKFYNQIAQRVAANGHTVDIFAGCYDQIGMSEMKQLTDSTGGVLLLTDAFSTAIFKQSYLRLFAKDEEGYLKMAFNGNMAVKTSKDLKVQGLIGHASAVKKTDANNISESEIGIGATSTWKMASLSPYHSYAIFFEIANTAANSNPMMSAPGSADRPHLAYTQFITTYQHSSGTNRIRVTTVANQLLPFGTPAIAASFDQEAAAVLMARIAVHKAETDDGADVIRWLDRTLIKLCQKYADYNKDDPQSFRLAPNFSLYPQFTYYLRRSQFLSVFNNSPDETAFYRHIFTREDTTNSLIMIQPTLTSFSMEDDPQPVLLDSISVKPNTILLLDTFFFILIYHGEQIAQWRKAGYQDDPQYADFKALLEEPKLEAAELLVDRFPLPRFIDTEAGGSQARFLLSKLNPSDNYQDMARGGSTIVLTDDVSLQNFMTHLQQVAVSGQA
Sequence of Sec23–Sec24 complex (WT) (P40482 whole entry, stated change not applied, the tested form may be a part): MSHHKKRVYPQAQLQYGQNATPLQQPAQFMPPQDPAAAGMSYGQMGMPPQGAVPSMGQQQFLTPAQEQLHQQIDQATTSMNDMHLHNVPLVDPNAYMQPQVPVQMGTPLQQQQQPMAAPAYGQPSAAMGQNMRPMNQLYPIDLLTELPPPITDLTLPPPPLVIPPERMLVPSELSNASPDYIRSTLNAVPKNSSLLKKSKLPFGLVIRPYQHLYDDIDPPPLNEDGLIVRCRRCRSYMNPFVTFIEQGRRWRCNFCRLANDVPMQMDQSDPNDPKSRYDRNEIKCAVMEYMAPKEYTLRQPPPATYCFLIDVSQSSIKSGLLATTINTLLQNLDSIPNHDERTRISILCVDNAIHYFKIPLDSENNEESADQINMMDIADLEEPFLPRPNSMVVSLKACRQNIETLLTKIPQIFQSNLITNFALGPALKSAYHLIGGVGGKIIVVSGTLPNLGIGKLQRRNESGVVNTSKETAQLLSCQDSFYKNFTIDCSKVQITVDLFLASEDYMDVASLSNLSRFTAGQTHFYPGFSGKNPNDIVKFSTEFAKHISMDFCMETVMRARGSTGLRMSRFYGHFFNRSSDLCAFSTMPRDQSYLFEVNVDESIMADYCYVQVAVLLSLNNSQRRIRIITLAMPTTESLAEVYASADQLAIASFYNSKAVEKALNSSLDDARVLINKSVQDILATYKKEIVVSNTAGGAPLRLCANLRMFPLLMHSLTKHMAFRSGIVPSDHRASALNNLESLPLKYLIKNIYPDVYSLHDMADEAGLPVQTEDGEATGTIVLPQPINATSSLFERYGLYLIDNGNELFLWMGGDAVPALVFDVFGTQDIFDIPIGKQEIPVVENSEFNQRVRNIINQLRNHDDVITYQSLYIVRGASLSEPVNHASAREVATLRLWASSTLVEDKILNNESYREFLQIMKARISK
Sequence of Sar1 (P20606 whole entry): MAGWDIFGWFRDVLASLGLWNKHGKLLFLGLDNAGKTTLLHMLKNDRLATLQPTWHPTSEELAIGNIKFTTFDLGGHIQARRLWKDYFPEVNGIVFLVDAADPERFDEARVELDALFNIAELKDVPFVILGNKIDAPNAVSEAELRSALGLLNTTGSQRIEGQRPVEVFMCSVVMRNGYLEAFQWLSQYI
Sequence of Sec13–Sec31 complex (WT) (Q04491 whole entry, stated change not applied): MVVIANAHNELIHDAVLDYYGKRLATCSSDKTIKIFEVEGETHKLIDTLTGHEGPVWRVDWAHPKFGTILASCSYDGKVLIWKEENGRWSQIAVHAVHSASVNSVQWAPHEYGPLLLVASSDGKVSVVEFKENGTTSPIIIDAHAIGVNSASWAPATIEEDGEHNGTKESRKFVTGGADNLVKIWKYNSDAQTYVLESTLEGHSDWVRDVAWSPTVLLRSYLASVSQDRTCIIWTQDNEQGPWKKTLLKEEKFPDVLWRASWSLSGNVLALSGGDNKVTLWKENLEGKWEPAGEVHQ
Sequence of Sec13–Sec31 complex (WT) (P38968 whole entry, stated change not applied): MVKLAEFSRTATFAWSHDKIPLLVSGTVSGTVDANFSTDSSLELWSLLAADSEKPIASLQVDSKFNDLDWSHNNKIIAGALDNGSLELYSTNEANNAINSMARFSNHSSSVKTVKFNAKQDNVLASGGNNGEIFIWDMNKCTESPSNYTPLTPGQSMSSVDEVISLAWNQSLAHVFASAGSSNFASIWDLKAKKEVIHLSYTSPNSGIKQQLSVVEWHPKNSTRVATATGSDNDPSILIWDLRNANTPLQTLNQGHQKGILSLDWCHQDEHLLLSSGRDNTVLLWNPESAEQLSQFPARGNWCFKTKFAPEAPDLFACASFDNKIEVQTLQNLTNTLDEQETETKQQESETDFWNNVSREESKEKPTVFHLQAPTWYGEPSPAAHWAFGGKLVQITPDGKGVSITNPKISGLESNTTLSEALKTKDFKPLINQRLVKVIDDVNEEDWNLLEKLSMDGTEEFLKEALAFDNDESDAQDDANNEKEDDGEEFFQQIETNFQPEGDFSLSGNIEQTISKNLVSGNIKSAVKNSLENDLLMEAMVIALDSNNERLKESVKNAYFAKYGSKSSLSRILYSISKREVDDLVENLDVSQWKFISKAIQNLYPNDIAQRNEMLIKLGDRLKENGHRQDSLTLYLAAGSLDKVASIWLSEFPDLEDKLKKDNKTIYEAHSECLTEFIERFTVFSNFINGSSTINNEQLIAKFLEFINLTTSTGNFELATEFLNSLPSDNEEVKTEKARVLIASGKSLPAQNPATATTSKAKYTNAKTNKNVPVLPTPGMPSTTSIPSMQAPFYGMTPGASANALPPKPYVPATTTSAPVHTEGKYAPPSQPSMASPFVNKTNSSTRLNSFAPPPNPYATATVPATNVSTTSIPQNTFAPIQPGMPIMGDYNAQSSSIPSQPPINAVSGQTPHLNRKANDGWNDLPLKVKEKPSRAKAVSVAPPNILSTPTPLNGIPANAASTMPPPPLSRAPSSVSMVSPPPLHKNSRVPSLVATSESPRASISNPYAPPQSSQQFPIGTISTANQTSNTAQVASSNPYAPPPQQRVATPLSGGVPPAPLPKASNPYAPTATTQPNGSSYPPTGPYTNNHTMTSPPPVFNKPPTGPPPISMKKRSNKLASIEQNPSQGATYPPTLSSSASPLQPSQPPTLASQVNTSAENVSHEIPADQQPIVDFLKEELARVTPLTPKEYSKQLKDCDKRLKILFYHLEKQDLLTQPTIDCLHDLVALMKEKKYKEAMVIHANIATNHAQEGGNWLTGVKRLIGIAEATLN
Sequence of Sec13–Nhis-Sec31 complex (Q04491 whole entry, stated change not applied): as the sequence (Q04491 whole entry, stated change not applied) above
Sequence of Sec13–Nhis-Sec31 complex (P38968 whole entry, stated change not applied): as the sequence (P38968 whole entry, stated change not applied) above

On to “Sec13–Nhis-Sec31 complex (from UniProt Q04491;P38968) ΔPPP (glycine/serine substitution of all six PPP motifs plus an additional PPAP motif; residues not printed)”, for which, in assay [1] (parent: est. 0.91), the other: Ratio Sec31:Sec23 was determined as 0.91.

For “Sec13–Sec31 complex (WT) (from UniProt Q04491;P38968) ΔPPP (glycine/serine substitution of all six PPP motifs plus an additional PPAP motif; residues not printed)”, the other: Ratio Sec31:Sec23 in assay [1] (parent: est. 1.1) is 1.2.

As to “Sec23–Sec24 complex (WT) (from UniProt P15303;P40482) Δcharge (charge reversal of a negatively charged surface adjacent to the gelsolin domain of Sec23; residues not printed)”, the other: Protein ratio Sec31:Sec23 in assay [2] worked out at 0.43. The other: Protein ratio Sec23:Sar1 with Sar1 is 1.1.

Values taken from PMC7594496.
